Earlier results on 1 substance are cited in paper PMC10979101.

For this data set, the target named is Gab2 503-524 (Homo sapiens) (UniProt Q9UQC2).
Chain of UniProt Q9UQC2 (Q9UQC2 503-524): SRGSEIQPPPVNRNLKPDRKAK

What is called Kd is the equilibrium constant for the complex coming apart. For Grb2 C-SH3 C-SH3 (from UniProt P62993), the Kd is 1700 nM.
